In patent US20230322947A1 (published 2023) one finds EC50 data, which are given here for 1 molecule.

This test deals with T1, cynomolgous CD3 on the cynomolgous T-cell line HSC-F (cynomolgus, UniProt Q95LI8 22-171; Q95LI7 23-181).
T1 chain: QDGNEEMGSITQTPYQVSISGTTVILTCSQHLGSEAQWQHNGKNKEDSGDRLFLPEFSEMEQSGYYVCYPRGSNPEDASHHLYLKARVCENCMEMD
The experiment in a line: FACS binding.

B1: bsIgG1 huCD3-H3L1×HER2-LFLEDA (bispecific antibody)
heavy 1: EVKLVESGGGLVKPGRSLRLSCAASGFTFNTYAMNWVRQAPGKGLEWVARIRSKYNNYATYYADSVKDRFTISRDDSKSILYLQMNSLKTEDTAMYYCVRHGNFGNSYVSWFAYWGQGTLVTVSS
VL 1: not shown
heavy 2: QVQLVQSGAEVKKPGASVKVSCKASGYTFTNYGISWVRQAPGQGLEWMGWLSAYSGNTIYAQKLQGRVTMTTDTSTTTAYMELRSLRSDDTAVYYCARDRIVVRPDYFDYWGQGTLVTVSS
VL 2: EIVLTQSPATLSLSPGERATLSCRASQSVSSYLAWYQQKPGQAPRLLIYDASNRATGIPARFSGSGSGTDFTLTISSLEPEDFAVYYCQQRSNWPRTFGQGTKVEIK
The molecule B1 showed a concentration giving a half-maximal response (EC50) of 3.54 µg/mL.
